Experimental data as given in the DeepSol protein solubility set.

assay: soluble on expression in E. coli; label from the status in PepcDB or PDB records

Sequence | soluble on expression in E. coli
PGRFALVFKDVTDRRRSEEALRESEAMFRSLTEAMPQLVWSARPDGSCDFFNRRWTDCTGASTEMAMGDGWRAFYHPDDQPAIDRLWPKALRTGEHYEIEYRLRHRDGSYRWMLGRGVPVRDEAGGILRWMGTCTDIH | not soluble
MPCFFFILDTSGSMSTRAHPQFSFFDLAKNFIENFIKQRTKGDNRMMVGRETDKYFLMTTQARYPKNVKVACEKLGAVVIEEIKKLHLPYGSCQLHHAILEAFKVLHVSRVQTGIDGVGIGRLISNTEPVTMILLTDGSGVAGIPIDFRLFFDPPFLGSEMTRDAFRWDQKFYTVVFRIPSTPYRPTISQLTAIDIDMPVIERLCARTGGRSFSIVSPRQIQTTIDYLLAMGNQYKIGVRFECLPAIPAPITSDEVNLVKMKFKKVIDKRPVTNIISRLNPQARPVTCHWPIPESFFPMRTMDQLPQRTSHPVILCAPIALPLHIRPELPVDKLELEPGGISDIIMEILQGRKDMTVWTYMEGSSNGPTAPFGCLRMNTLGTGITLILMPFNFPMLYSLVEEIVKEPFLNKSQVWRSKLESYFHTVPFYYNTQIRVCLDKFDVKVDYSSSMSMFYPGQLLSNLNRFKAKAREELDQMAIASKLNDSKTLKIVNPSIRIERITSRSTIIGLGNSEVDIEDDSLEGYESTPIYAGDFKIPLYPPSITDAQLDSAYRTPYSSPIEDLTSKLNRIQANIELMFDPNKITLLDMAKLGTKARFNTLGLCFFHPIFLANSTSRKFYIQKFETLQVMDSAVVDNNSPSTSGQPKRFGGEGRQGGGPPKRRRGPLGIDAYDQYRIRRSMRGSSAGSDISDISSSLGTFDQDSDMTTPGTSGMNTPISEFDDLQLQEMDSDDQLMKNLDEVQALRKKEEAQVQPKIKKPPPVPPASILSSQEILTRKIRIGSIIRKPANHCAFEEIMTLVAGITQEACSQLIKYALRESQRFKLKQLTERLENRLKTV | not soluble
MDNFMDYIYRDFHIMQQTYATLVSVNNKIQIQTDKYSDNITSRQYMTILAIFHLPEDETTLNNIAKKLGTTKQNIKQIINILEGKGYVQTMPSKQDKRAINVSVTKEGWQVAESYAEKSFELFGDIFNDFSVEEMKILWMLLKKLYRFDGEEQDGFEEDANPSGELTEEQIEMAEAFARRRREKYGSK | not soluble
KYRHEYYQKPEEVVVTVFAKGIPKQNVNIDFGEQILSVVIEVPGEDAYYLQPRLFGKIIPDKCKYEVLSTKIEICLAKADIITWASLEHG | soluble
MAHHHHHHMWQHHNLSSPTLGPREAKPTVQTSRRGCMRSDAWCSSLAGGGHDDPSESVPNSRVSPRASSFAPPQRTAPSPTESTSQELFELQNCNHHKQQQKQQLVIRQEDIRDDDFQRLEVLGDGSYSVVVSARHLPTQQLVALKEVSRHRLRELKLEKQLQWEINVHRTLRHPNVVRMLSYYITPQTVVLVLEMCPGGTLLQKLKTMPGGRFDERRASRYVRQAARALTYLHGHGIAHRDLKLENIFLDAHGVARLGDFGWSKALVEPTVEQDLSSHHDNFGTAPCSAAKDVSPLCSGGRGRLTVCGTLDYLSPEMLIGMPHTFKTDVWSLGVMLAEMLTGAPPFYCVSQQDTLNAIREAAPHLGDDVQMSSLARELVLAMLQKNPDARPTMAEVLQHPWTRQNGEKKKKKK | soluble
GSHMIVQIGRREEFDKKLLGEMHKLRAQVFKERKGWDVSVIDEMEIDGYDALSPYYMLIQEDGQVFGCWRILDTTGPYMLKNTFPELLHGKEAPCSPHIWELSRFAINSGQKGSLGFSDCTLEAMRALARYSLQNDIQTLVTVTTVGVEKMMIRAGLDVSRFGPHLKIGIERAVALRIELNAKTQIALYGGVLVEQRLAVS | soluble
MAPLLSLCMIVKNEAHQLRRCLQSVQPWVDEIIIVDTGSTDGTIAIACEFTPHVHAVAWQGDFAAARNAALAQATGEWVFYIDADEELVVTDAHWQDQLTAPGAHAINQWSLLRREQSSDRNWSEFWNVRFGRRFPDLHFAGALHEQLCYREREAVVGELQGVYLIHHNQQSQEQFLAKIRDRNIPILETMVQQGDRRLQNLVCLGDHYAACGDSDRSQAWYEQALEEIASAVEQGILPRETTWLRHLLFWVSYRAFEAKDYETAQYYLSYGLRFFDRYPPLLYVAGLFVFELGLPRGALPYFHRCLDLFEAGSYDRTEPFDRQWMTTQPAYSLGYTYMTLQERDRAIAYFQKTLKFNPDYPPAQMYLEQLLRASANQGLEHHHHHH | not soluble
MEPTENLDVCLATLRDTDRDRYLACLLSPADKRNALAALYAFNAEIARIRDSVREALPGEVRMQWWRDLVDGNPHGDSQSHPVAAALLTTIEHYRLPRPVLGNMIEARIFDLYDDLFEDRNALEGYAGETASALIQLASLVLSAEDAAHSAEAAGHAGVAQAMAGMLLLMPLHRRRGQVYIPADMLAAAGLDRETFLAGQDRQRIGIAVEIFAAHALDHIEKARRATISKNLFAAYLPVALSGPVIAAARKAGAGVFDGDLQLSQLRRQWLLAKASFLKRF | not soluble
MRFITIAAVLLVSSLLIVEASSIRDKRQSCGCASQVQPSCSCQQATQPQQYSCSCQNTAPVQTSCSCAQPVQQVTYQVQTSQCAPACQQSCQNQCQFAPSMNECQSSCQQTCQTSSCYTQIAAPAPVQCQPSCMPACEQSCVAPAPVTVQCVPQCQQKCTQQCVQAQPIQQCQPQCQQQCVQQCAPTVAPQVINVNLGISAQCAPQCQQQCQQQCLLQQVPVQQCYQECTQPCQTTCQQAAPQCVQQCAPQCQQPSAPQCQQCQNTCQQYAPVCQQQCAPQCTLPSAPACQQCQTSCQQTQQCQQQCIPQCQQPAAPQCQQCQSACQSPVVAPQIVTVILEPSVSQSAQCVPQCQQSCQQQCIQQQQPMQQCAPACTQSCYQSCSTAQLVQMPCLTQSVNSCSCQQNYSPCGNGQCCKRM | not soluble
MDPQILSPASYGNRAPQKKKKPKKPSAELPSRHSTRSDENSGKIEPGTEHMSSGQRKNLKLLKSDERARVIDARAVLDSAQKHLATLLKNGGKGGDEDIDELIFNREAEIPVEPIRKGKCPFYFDQRILTIVGRVGEVPVQHWFAIYNTSPFPYMFKIKCSDNSLFKIHPVCGVLDALCDAEISVTFVGAHVPPRYTSYLSIHSMLPDPLFLDVPQAFRNRRNFETRQRLYVEYAYHEDPILVTAEEDRDQFHFQYMRKVLKTDEAESFAKKLKAEKVERLDKKIDEIKARKIDEKLIEREIVRAESPKFEPKTRRLRVEKFFNQQKQKKENEWMEKLKVDASRKPMLSHWDLEMKNIKAEKKKIGAVKKKIKAEKKEDKKKPMGWMSTLKMERDERRTKRKEEEEKKKKDAEEKKKKDAEEKKKKDAEDEKKKDAGDEKKKDAEDEKKKDAGDEKKKKDAGEKKKKDAEEKKKVAEEEKKS | soluble
MKKISRKEYVSMYGPTTGDKVRLGDTDLIAEVEHDYTIYGEELKFGGGKTLREGMSQSNNPSKEELDLIITNALIVDYTGIYKADIGIKDGKIAGIGKGGNKDMQDGVKNNLSVGPATEALAGEGLIVTAGGIDTHIHFISPQQIPTAFASGVTTMIGGGTGPADGTNATTITPGRRNLKWMLRAAEEYSMNLGFLAKGNASNDASLADQIEAGAIGFKIHEDWGTTPSAINHALDVADKYDVQVAIHTDTLNEAGCVEDTMAAIAGRTMHTFHTEGAGGGHAPDIIKVAGEHNILPASTNPTIPFTVNTEAEHMDMLMVCHHLDKSIKEDVQFADSRIRPQTIAAEDTLHDMGAFSITSSDSQAMGRVGEVITRTWQTADKNKKEFGRLKEEKGDNDNFRIKRYLSKYTINPAIAHGISEYVGSVEVGKVADLVLWSPAFFGVKPNMIIKGGFIALSQMGDANASIPTPQPVYYREMFAHHGKAKYDANITFVSQAAYDKGIKEELGLERQVLPVKNCRNVTKKDMQFNNTTAHIEVNPETYHVFVDGKEVTSKPANKVSLAQLFSIF | soluble
MNNPDLPYRQALECLSQKQYNFTEVRRLLTEAFSAGHPAAAFELAKHLMDADSPYQDREQGMEMLRIAAEQGHPYARYNLAYIQELEGAPPETLIPLYRPLAEEGLPEAQVRLMYLLYASRHFEEALEWAKTSAKNNNPHGQYLLAQYCRYGTPPDFETAHLLYRKSAAQGLPEAHWQLGLQYRFGQGTKVDTAQAVNHLRAAAQQGYIPAYTPLAELILPTAPDEAVHWFQQAAQENDPDAHAALADIYLQGKHLERNHKLALHHAEAAAAERHPEGLRILGDICRYGLGIAPDTEKARHYYRQAAEAGSLSAYQKLISDSALNHPDQYGGIKDSAIRRQRAERLYQKAQALHYGLQCAPEYAAALKLYTEAAELGHSKAQTNLGSMYYFGQGMTADYNEARKWFEKAAAKKDSMAFYNLACIHYSGHGVEPDKEKACRYLQEAINNGYGQKSVLQELLQQWQNAV | not soluble
MRCVYCHNAQLQEFAPGAVGVDDLVGLARRRIGLIDAVVISGGEPTAVPGLAEAICRIHDLGLPVGLHTCGYAPKRLATLVSQPESRPDWIGLDIKALPRHMHEITGCSPRVAQSCWESLAIIDAVGIEVQTRTTLWPGSVIEQNLRELEVMVAAQGHELVVQQARF | not soluble
QRKVSVAGAITTMDPAQLEVPATNIVNTLAGRVAGVIGVQSSGEPGKNISEFWVRGIGTFGANSGALVLIDGLEGSLSQIDAADVESFSVLKDAAATAVYGSRGANGVVLVTTKRGLES | not soluble
MEKNDIFVVIPAYNEEKMIKNTLINLKSHGYENIIVVDDGSRDNTSKIAISEEVIVCKHIINRGLGGALKTGLKCAVKYNPKVIVTFDADGQHDPEDIFKVSEPILEDSFDVVVGSRLIDENELKNMPLIKKIGNWGLNFITYLMGGRMVTDSQGGLRAFSYDAAEIVSKQLKSNRYEVSSEFIVLFKKNNLKFKEVPIKTIYTEYSMARGTNVITGFKILFKLLIQKLILEHHHHHH | soluble
MGFKTVAKEEKQQLVANVFHSVAAKYDLMNDLLSFGIHRIWKRFTIDCSGVRKGQKVLDLAGGTGDFSAKFSRIVGETGQVVLADINSSMLEVGRDKLRNLGVVGNINYVQANAEHLPFADNTFDCVVISFGLRNVTDKDKALKSMYRVLKPGGRLLVLEFSKPIFDPISQLYNFYSFNILPKVGGIVVNDAESYRYLAESIRMHPKQDELKTMMEHAGFESVNYYNLSAGIVALHRGYKLEHHHHHH | not soluble
MAHSKHGLKEEMTMKYHMEGCVNGHKFVITGEGIGYPFKGKQTINLCVIEGGPLPFSEDILSAGFMYGDRIFTEYPQDIVDYFKNSCPAGYTWGRSFLFEDGAVCICNVDITVSVKENCIYHKSIFNGMNFPADGPVMKKMTTNWEASCEKIMPVPKQGILKGDVSMYLLLKDGGRYRCQFDTVYKAKSVPSKMPEWHFIQHKLLREDRSDAKNQKWQLTEHAIAFPSALA | soluble
